Data taken from paper PMC4227725 (Journal of the American Chemical Society, 2014).

Assays:
HeLa cells [1] = settings: 2.5 μM, 30 min, 37 °C, heparin washes, phenol red-free medium
HeLa cells [2] = settings: Tat polymer 2.5 μM, chymotrypsin 1 μM, up to 14 h

Row | Substance | fluorescence in live cells, Z-stack 1 μm slices (in words) (HeLa cells [1]) | cell entry after incubation with chymotrypsin, time course (in words) (HeLa cells [2])
1 | GSGSG [GSGSG polymer] | no fluorescence was seen | 
2 | YGRKKRRQRRR [Tat polymer] |  | retains the ability to enter cells
